From paper PMC5007091 (Molecular Biology of the Cell, 2016)

Molecular target: the molecule itself
Test: split reporter

B1: Cdc10 (natural protein)
chain: MDPLSSVQPASYVGFDTITNQIEHRLLKKGFQFNIMVVGQSGLGKSTLINTLFASHLIDSATGDDISALPVTKTTEMKISTHTLVEDRVRLNINVIDTPGFGDFIDNSKAWEPIVKYIKEQHSQYLRKELTAQRERFITDTRVHAILYFLQPNGKELSRLDVEALKRLTEIANVIPVIGKSDTLTLDERTEFRELIQNEFEKYNFKIYPYDSEELTDEELELNRSVRSIIPFAVVGSENEIEINGETFRGRKTRWSAINVEDINQCDFVYLREFLIRTHLQDLIETTSYIHYEGFRARQLIALKENANSRSSAHMSSNAIQR
Question: For B1, which “fluorescence at the bud neck, fold over the negative controls” value is on record?
Answer: The value was > 20 fold.
